Test results as given in US20250304677A1 (VIB VZW, published 2025).

B1: VHH 3MFR60 (family 10) (VHH)
VHH: QVQLQESGGGLVQAGGSLRVSCAASGIIFSMNGMGWFRQAPGKQRELVASITSGGSTKYADSVKGRFTISRDNAKNTVYLQMNSLKPEDTAVYYCNIQFGSRWSTYWGQGTQVTVSS
B2: VHH 2HFO19 (family 1) (VHH)
VHH: QVQLQESGGGLVQPGGSLRVSCAASGFPFSTVYMSWVRQAPGKGLEWVSGINNDGGVIDYADSVKGRFTISRDNAKNTLYLQLNSLKPEDTALYFCARGRSFVATLSSSLRGQGTQVTVSS
notes: also called Nb19
B3: VHH 2HFO42 (family 3) (VHH)
VHH: QVQLQESGGGLVQAGGSLRLSCAASGSGFSGMIMGWYRQVPGKQRELVATVTSHGTTNYADSVKGRFTISRDNAKNTVLLQMNSLKPEDTAVYYCNAHFPGIYWGKGTQVTVSS
notes: also called 2HF042; Nb42

Assays:
human FRα Y150H = target: T1, human FRα Y150H (human, UniProt P15328 25-234); assay: flow cytometry, transfected HEK293T cells (data not shown)
T1 construct: The entry is the mutant itself
Method in brief: (§1)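 HEK293T cells were transfected with single-residue mutants of human folate receptor alpha. Binding was measured by flow cytometry with each VHH at 200 nM. VHHs were detected with a mouse anti-His tag antibody followed by an anti-mouse phycoerythrin antibody. Untransfected cells served as negative control.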

human FRα R147H = target: T2, human FRα R147H (human, UniProt P15328 25-234); assay: as above
T2 construct: The entry is the mutant itself
Method in brief: as §1

human FRα E140Q = target: T3, human FRα E140Q (human, UniProt P15328 25-234); assay: as above
T3 construct: The entry is the mutant itself
Method in brief: as §1

[1] = target: T4, human folate receptor alpha (hFRα), recombinant protein (human, UniProt P15328 25-233); assay: BLI, FRα on AR2G biosensors, 1:1 model
T4 construct: Bought recombinant proteins (His-tagged, or biotinylated via Avi-tag, e.g. AcroBiosystems FO1-H82E2, F01-H52H1); also called hFOLR1; huFOLR1
Protocol: (§2) As a next step, the kinetic binding constants were determined using BLI ^{∘}Table 3). […] Similar to the ELISA results ^{∘}FIG. 1A-B), higher binding affinities were measured for mouse FRα than human FRα, with KD values […] one order of magnitude in most cases. […] For 3HFO28, binding to human FRα could not be confirmed by BLI, and this VHH was excluded from further characterization.
(§3) The kinetic parameters were calculated using a 1:1 binding model.

[2] = target: T5, mouse folate receptor alpha (mFRα), recombinant protein (mouse, UniProt P35846 25-232); assay: BLI, FRα on AR2G biosensors, 1:1 model
T5 construct: Bought recombinant proteins (e.g. biotinylated, Acro Biosystems FO1-M82E9); also called mFOLR1; Ms FOLR1
Protocol: as §2, §3

[3] = target: T4, human folate receptor alpha (hFRα), …; assay: ELISA, periplasmic extract
Excerpt: (§4) From the lymphocytes of each llama a separate VHH library was constructed to select and screen for the presence of antigen-specific VHHs. To this end, total RNA from peripheral blood lymphocytes was used as template for first strand cDNA synthesis with an oligo ^{∘}dT) primer. Using this cDNA, the VHH encoding sequences were amplified by PCR, digested with PstI and NotI, cloned into the PstI and NotI sites of the phagemid vector pMECS and transformed into E. coli to generate VHH libraries. To enrich these libraries for FRα ^{∘}or FOLR1, as used interchangeably herein)-specific VHHs, a combinatorial panning approach on recombinant human and mouse FOLR1 was used followed by random selection and screening of clones by ELISA for the presence of antigen-specific VHHs in their periplasmic extracts ^{∘}PEs). In order to gauge the cross-reactivity for human and mouse FOLR1, each clone was tested on both antigens.
(§5) After panning of core76/77 on human and mouse folate receptor alpha ^{∘}FRα), […] were randomly selected from the second and third rounds and analyzed by ELISA on both human and mouse FRα for the presence of FRα-specific VHHs in their periplasmic extracts ^{∘}PE). This led to the identification of 98 hits. For these 98 hits, the off-rate ^{∘}koff) in the PE was determined by biolayer interferometry ^{∘}BLI) on both mouse and human FRα that was directly immobilized onto AR2G biosensors. The off-rates were calculated using a 1:1 binding model. […] Abbreviations: SE: standard error.

[4] = target: T5, mouse folate receptor alpha (mFRα), …; assay: ELISA, periplasmic extract
Excerpt: as §4, §5

[5] = target: T5, mouse folate receptor alpha (mFRα), …; assay: BLI tandem binning on mouse FRα; competitor (1st association) 2HFO42
Excerpt: VHHs that share high sequence identity in the CDR3 region, a VHH family, are derived from the same B-cell lineage and diverged from each other due to somatic hypermutation or affinity maturation. Typically, VHHs from the same family recognize the same epitope on the target, but may differ in other characteristics ^{∘}De Genst et al 2006 PNAS 103:4586-4591; De Gents et al 2005 J Biol Chem 280:14114-14121). To study whether the VHHs from the different families bound different epitopes, epitope binning was performed using a tandem binding approach in BLI. One VHH from each family was allowed to bind to mouse FRα on the biosensor, followed by binding of the second VHH ^{∘}Table 4).
Competition between VHHs from different complementarity determining region ^{∘}CDR) 3 families was assessed in a tandem binding assay using biolayer interferometry ^{∘}BLI). Streptavidin biosensors were loaded with biotinylated mouse FRα ^{∘}Acro Biosystems, Cat.nr. FO1-M82E9), followed by binding of anti-FRα VHHs ^{∘}VHH in first association). The biosensors were then transferred to a solution containing a second VHH mixed 1:1 with the first VHH ^{∘}VHH in second association). Using the FortéBio Data Analysis Software the absolute additional binding signal for the second association on top of the first association was calculated. The data were normalized per VHH in first association using the following formula: ^{∘}signal-self)/^{∘}maximum-self) with self being the value of the VHH in first association in combination with the same VHH in second association.

T1 sequence (P15328 25-234 Y150H limits assumed): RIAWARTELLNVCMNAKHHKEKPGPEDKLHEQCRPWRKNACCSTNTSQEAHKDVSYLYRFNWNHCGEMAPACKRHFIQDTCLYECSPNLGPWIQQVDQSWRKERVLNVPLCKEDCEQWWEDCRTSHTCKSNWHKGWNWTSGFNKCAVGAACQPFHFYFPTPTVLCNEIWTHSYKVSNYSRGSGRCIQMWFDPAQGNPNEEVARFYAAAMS
T3 sequence (P15328 25-234 E140Q limits assumed): as the sequence (P15328 25-234 Y150H limits assumed) above, with E116Q, H126Y counted along it
T5 sequence (P35846 25-232 limits assumed): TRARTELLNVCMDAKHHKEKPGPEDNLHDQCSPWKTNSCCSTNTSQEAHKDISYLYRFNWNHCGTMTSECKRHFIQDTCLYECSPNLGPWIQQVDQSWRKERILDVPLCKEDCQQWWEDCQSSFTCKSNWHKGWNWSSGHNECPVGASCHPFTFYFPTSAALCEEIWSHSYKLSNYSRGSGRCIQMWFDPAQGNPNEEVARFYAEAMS
T2 sequence (P15328 25-234 R147H limits assumed): as the sequence (P15328 25-234 Y150H limits assumed) above, with R123H, H126Y counted along it
T4 sequence (P15328 25-233 limits assumed): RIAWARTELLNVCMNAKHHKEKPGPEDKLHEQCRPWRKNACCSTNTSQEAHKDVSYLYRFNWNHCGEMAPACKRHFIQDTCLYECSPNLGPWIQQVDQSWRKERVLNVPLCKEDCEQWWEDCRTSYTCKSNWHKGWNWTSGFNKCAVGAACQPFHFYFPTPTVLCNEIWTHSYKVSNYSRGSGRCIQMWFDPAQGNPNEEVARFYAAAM

Binder | binding result (human FRα Y150H) | binding result (human FRα R147H) | binding result (human FRα E140Q) | Kd [1] | koff [1] | kon [1] | Kd [2] | koff [2] | kon [2] | PE-ELISA (ratio to uncoated well) [3] | PE-ELISA (ratio to uncoated well) [4] | normalized additional binding in 2nd association [5]
B1 | binds | binds | binds | 169 nM | 0.159 s⁻¹ | 938000 M⁻¹ s⁻¹ | 2.59 nM | 0.00297 s⁻¹ | 1.15e+06 M⁻¹ s⁻¹ | 4.8 | 4.9 | 34%
B2 | binds | binds | binds | 63.7 nM | 0.0149 s⁻¹ | 233000 M⁻¹ s⁻¹ | 2.97 nM | 0.00393 s⁻¹ | 1.32e+06 M⁻¹ s⁻¹ | 13.8 | 14.2 | 12%
B3 | binds | binds | binds | 274 nM | 0.0276 s⁻¹ | 101000 M⁻¹ s⁻¹ | 23.8 nM | 0.00467 s⁻¹ | 203000 M⁻¹ s⁻¹ | 11.7 | 12.2 | 0%
